B1: PB-721 (peptide)
peptide: HSQGTFTSDYSKYLDSRRAQDFVQWLMNTC
modifications: not fully specified; mPEG-23 KD-ppMAL conjugated to PB-740 (cysteine added after the 29th amino acid)

Molecular target: glucagon receptor
Assay: cell-based or functional assay

Binder	In Vitro EC50 (cAMP release, HEK293 cells stably expressing the glucagon receptor, cAMP ELISA)
HSQGTFTSDYSKYLDSRRAQDFVQWLMNTC [PB-740]	1.45 nM
B1	6.94 nM

Reference: patent US20190134161A1 (PEGBIO, published 2019)
